Results on one protein are retold here after paper PMC4615758 (RNA Biology, 2014).

The data set concerns the molecule itself. The experiment in a line: native gel or EMSA. A general note: Mobility shift assays separate free from complexed probe on a gel.

B1: recombinant full size LARP6 purified from E. coli (natural protein)
chain: MAQSGGEARPGPKTAVQIRVAIQEAEDVDELEDEEEGAETRGAGDPARYLSPGWGSASEEEPSRGHSGTTASGGENEREDLEQEWKPPDEELIKKLVDQIEFYFSDENLEKDAFLLKHVRRNKLGYVSVKLLTSFKKVKHLTRDWRTTAHALKYSVVLELNEDHRKVRRTTPVPLFPNENLPSKMLLVYDLYLSPKLWALATPQKNGRVQEKVMEHLLKLFGTFGVISSVRILKPGRELPPDIRRISSRYSQVGTQECAIVEFEEVEAAIKAHEFMITESQGKENMKAVLIGMKPPKKKPAKDKNHDEEPTASIHLNKSLNKRVEELQYMGDESSANSSSDPESNPTSPMAGRRHAATNKLSPSGHQNLFLSPNASPCTSPWSSPLAQRKGVSRKSPLAEEGRLNCSTSPEIFRKCMDYSSDSSVTPSGSPWVRRRRQAEMGTQEKSPGTSPLLSRKMQTADGLPVGVLRLPRGPDNTRGFHGHERSRACV
Turning to B1, the binding result is “binds”.
